Target: recombinant human λS Full-Length free light chain (rλS-LC) (human)

“recombinant human λS Full-Length free light chain (rλS-LC) (natural protein)” was tested, and the stoichiometry N was 2.

Reference: paper doi:10.1101/2024.07.18.604040
